{"source": "patent US20240400698A1", "about": "“ANTI-CHEMOKIN LIKE RECEPTOR 1 ANTIBODIES AND THEIR THERAPEUTIC APPLICATIONS” (OSE IMMUNOTHERAPEUTICS, priority 2018, published 2024)", "molecules": {"B1": {"name": "2G1: chimeric anti-CMKLR1 antibody, murine variable regions (SEQ ID No: 10 and 17), human IgG1 constant regions; VH-CDR3 variant LI (antibody, V domains shown)", "VH": "METDTLLLWVLLLWVPGSTGDEVQLVASGGGLVQPGGSLKLSCAASGFTFSSYGMSWVRQTPDRRLELVATINRYGGSTYYPDSVKGRFTISRDNAKNTLYLQMSSLKSEDTAMYYCPRLIYYGNEGDSWGQGTTLTVSS", "VL": "METDTLLLWVLLLWVPGSTGDQIVLTQSPAIMSASPGEKVTMTCSASSSVSFMHWYQQKSGTSPKRWIYDTTKLTSGVPARFSGSGSGTFYSLTISSMEAEDAATYYCQQWNSKPPLTFGPGTKLELKR", "modifications": "human IgG1 constant regions", "notes": "VH-CDR3 variant LI"}}, "key": {"[1]": {"test_system": "C57BI/6 male mice, colitis induced by TNBS", "experiment": "Acute inflammatory colitis model induced by TNBS", "format": "in vivo", "details": "FIG. 3, 2G1 10 μg, RvE1 1 μg per mouse i.p.", "description": "FIG. 3. […] Mice received 200 μL of the haptenating agent TNBS at 5% in 50% ethanol on day 0 and then were injected with isotype control hIgG1 (10 μg per mouse) (x), RvE1 (1 μg per mouse) daily (•), or 2G1 antibody (10 μg per mouse) three times ( ) for 5 days, or non-treated (wild type animals) (▾). Mice were sacrificed colon length was measured in each condition.\nColitis was induced in 8-10 weeks-old-C57BI/6 male mice by intrarectal injection of 200 μL of the haptenating agent TNBS at 5% in 50% ethanol on day 0. Treatments were injected intra-peritoneally; RvE1 (1 μg per mouse) daily for three days, or 2G1 antibody (10 μg per mouse) twice for 3 days. Colitis follow-up consisting of body weight and stool score (0: normal stool; 4: blood in stool) parameters were performed daily (data not represented). When mice are euthanized, colon length representing the pathology severity was measured."}, "[2]": {"test_system": "NOD female mice, spontaneous type 1 diabetes", "experiment": "Type 1 diabetes NOD model", "format": "in vivo", "details": "20 μg/injection i.p. three times a week for 2 weeks", "source_text": "FIG. 5. […] Mice develop spontaneous diabetes. […] A. Percentage of survival, B. individual representation of blood glucose concentration in mg/dL. C. pooled representation of blood glucose concentration in mg/dL.\n8 weeks-old NOD female mice were obtained from Charles River laboratory. These mice develop a spontaneous type 1 diabetes at age between 12 to 20 weeks. The diabetes initiation can be measured by the high glycaemia."}, "[3]": {"test_system": "mice M1 or M2 macrophages", "experiment": "Cytokine secretion by mice M1 or M2 macrophages (ELISA), FIG. 15", "format": "cell-based", "details": "ELISA", "description": "FIG. 15. Study of the inflammatory cytokine secretion by human macrophages during CMKLR1 activation. After differentiation of human macrophages M1 or M2, cells were incubated in presence of medium, isotype control, anti-CMKLR1 antibodies (H6 and BZ194), C15 peptides, 2G1 anti-CMKLR1 antibody or RvE1. Secretion of IL10, CCL17 and IL12p40 were assessed by ELISA. Cytokines secretion is measured in the supernatant by using an ELISA kit from BD. Supernatant were diluted at 1/10 for IL10 cytokines, 1/50 for CCL17 cytokines and 1/100 for IL12p40 cytokines. A. IL10 cytokine secretion by M2 cells. B. CCL17 cytokine secretion by M2 cells. C. represents IL 12 cytokine secretion by M1 cells.\nBone marrow cells were harvested and cultured in the RPMI medium supplemented with 10% FBS, glutamine and antibiotics containing macrophages colony-stimulating factor (M-CSF) at 100 ng/ml for 5 days inducing the macrophages differentiation. The macrophages were harvested and cultured for 2 days with either IFNg (20 ng/ml) and LPS (100 ng/ml) inducing the M1 polarization or with IL-4 (20 ng/ml) inducing the M2 polarization. Treatments were added during macrophage polarization at 2 μg/ml.\nAfter differentiation of mice M1 or M2 as explain above, cells were incubated in presence of medium, isotype control, anti-CMKLR1 antibodies: clones H6 and BZ194, C15 peptides, 2G1 the anti-CMKLR1 antibody of interest or RvE1 were used. Then the secretion of IL10, CCL17 and IL12p40 was assessed by ELISA. Cytokines secretion was measured in the supernatant using an ELISA kit from BD. Supernatants were diluted at 1/10 for IL10 cytokines, 1/50 for CCL17 cytokines and 1/100 for IL12p40 cytokines.\nCytokines secretion was detected by ELISA according to the BD manufacturer instructions. Briefly, supernatants were diluted in the appropriate buffer and incubated for 2 hours after overnight coating with capture antibody and saturation. […] TMB supplied by BD Bioscience was used as substrate and colorimetric reaction was read with TECAN."}, "CMKLR1 receptor": {"target": "T1, CMKLR1 receptor (Homo sapiens, UniProt Q99788)", "T1 construct": "host or cells: CHO-K1", "T1 sequence (Q99788 1-373)": "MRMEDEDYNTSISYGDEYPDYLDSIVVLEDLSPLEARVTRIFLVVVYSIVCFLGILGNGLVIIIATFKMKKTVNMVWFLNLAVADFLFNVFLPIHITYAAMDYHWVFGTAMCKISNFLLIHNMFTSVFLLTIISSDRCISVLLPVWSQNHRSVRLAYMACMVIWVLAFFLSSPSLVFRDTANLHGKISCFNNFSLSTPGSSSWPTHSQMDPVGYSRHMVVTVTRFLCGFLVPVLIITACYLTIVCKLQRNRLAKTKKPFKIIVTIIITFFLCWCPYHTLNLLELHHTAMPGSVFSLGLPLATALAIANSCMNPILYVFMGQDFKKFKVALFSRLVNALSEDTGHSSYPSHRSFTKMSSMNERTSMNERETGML", "experiment": "Competition assay of Chemerin-dependent β-arrestin recruitment by CMKLR1 receptor, CHO-K1 CMKLR1 cells", "format": "cell-based", "details": "FIG. 20B; antibody 1 μM to 1 nM, Chemerin 2 or 6 nM", "description": "The day before the assay, CHO-K1 CMKLR1 cells (Discover'X ref 93-0313E2) were plated in pre-warmed cell reagent then plated in a 96-well plate at 100 μl/well of cells as (Discover'X ref 15-103) and incubated […] at 37° C., in a 5% CO2 humidified incubator. The anti-CMLKR1 antibody was diluted (22× in 7-point series of 3-fold dilutions from 1 μM to 1 nM) and cells were incubated 30 min at 37° C. with the antibody. […] The luminescence was measured after Working Detection Solution addition to the cells with a plate reader with 0.5 s integration."}}}
{"molecule": "B1", "values": [{"measurement": "colon length", "setting": "[1]", "result": "the same as normal animal (wt)"}, {"measurement": "survival percentage", "setting": "[2]; FIG. 5A", "result": "better survival percentage"}, {"measurement": "glycaemia (blood glucose concentration)", "setting": "[2]; FIG. 5B-C", "result": "almost normal glycaemia"}, {"measurement": "IL10 secretion by M2 type macrophages", "setting": "[3]; FIG. 15A", "result": "induced"}, {"measurement": "CCL17 secretion by M2 type macrophages", "setting": "[3]; FIG. 15B", "result": "induced"}, {"measurement": "pro-inflammatory cytokines (IL12) from M1 type macrophages", "setting": "[3]; FIG. 15C", "result": "decreased"}, {"measurement": "effect on chemerin-dependent activation of the beta-arrestin", "setting": "CMKLR1 receptor", "result": "did not significantly modify chemerin-dependent activation of the beta-arrestin"}]}
